Where a chain is given by its changes, count along the chain named.

The labels stand for the following.
T1: human recombinant CD123 protein (human, UniProt P26951 19-300)
T1 construct: range 19-300
T1 sequence (looked up): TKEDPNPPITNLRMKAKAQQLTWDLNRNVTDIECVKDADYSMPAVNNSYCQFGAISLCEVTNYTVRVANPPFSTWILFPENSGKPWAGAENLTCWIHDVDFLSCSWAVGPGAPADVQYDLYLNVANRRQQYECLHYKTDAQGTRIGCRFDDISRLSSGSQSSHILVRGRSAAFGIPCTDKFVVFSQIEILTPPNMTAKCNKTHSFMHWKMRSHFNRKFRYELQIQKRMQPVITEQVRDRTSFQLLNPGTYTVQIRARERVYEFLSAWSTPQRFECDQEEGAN

B1: bispecific antibody BM#1 against CD33 and CD123 (bispecific antibody, human IgG1)
chain 1: QVQLVESGGGSVQAGGSLRLSCAASGYTYSSTCIGWFRQAPGKDREGVAFAYTGGGVTYADSVKGRFTISQDNAKNTVHLIMNSLKPEDTAMYYCAAKTRGGCWAAAAFYNYWGQGTQVTVSSEPKSCDKTHTCPPCPAPELLGGPSVFLFPPKPKDTLMISRTPEVTCVVVDVSHEDPEVKFNWYVDGVEVHNAKTKPREEQYNSTYRVVSVLTVLHQDWLNGKEYKCKVSNKALPAPIEKTISKAKGQPREPQVYTLPPSRDELTKNQVSLWCLVKGFYPSDIAVEWESNGQPENNYKTTPPVLVSDGSFTLYSKLTVDKSRWQQGNVFSCSVMHEALHNHYTQKSLSLSPGK
chain 2: not shown
notes: VHH-Fc heterodimer
B2: bispecific antibody BM#32 against CD33 and CD123 (bispecific antibody, human IgG1)
chain 1: B1 chain 1 with Q255R, E265D, W274T, V307D, T313F, Y315A
chain 2: QVQLVESGGGSVQAGGSLKLSCAASRFIFSRCGMGWFRQAPGKERELVSTISGDGTTFYADSVKGRFTISQHNAATTLYLQMNSLKLEDTAVYYCAADCYNRKYWGQGTQVTVSSEPKSCDKTHTCPPCPAPELLGGPSVFLFPPKPKDTLMISRTPEVTCVVVDVSHEDPEVKFNWYVDGVEVHNAKTKPREEQYNSTYRVVSVLTVLHQDWLNGKEYKCKVSNKALPAPIEKTISKAKGQPREPQVYTLPPSRDELTDNQVSLTCLVYGFYPSDIAVEWESNGQPENNYKTTPPVLDSDGSFFLYSVLTVDKSRWQQGNVFSCSVMHEALHNHYTQKSLSLSPGK
notes: VHH-Fc heterodimer; also called BM-RT2831-#32
B3: bispecific antibody BM#30 against CD33 and CD123 (bispecific antibody, human IgG1)
chain 1: B1 chain 1 with Q255R, E265K, W274T, V307D, T313F, Y315A
chain 2: B2 chain 2 with Y270E
notes: VHH-Fc heterodimer; also called BM-RT2831-#30
B4: bispecific antibody BM#27 against CD33 and CD123 (bispecific antibody, human IgG1)
chain 1: B1 chain 1 with D264K, E265D, W274T
chain 2: B2 chain 2 with D260K, V309W, K339E
notes: VHH-Fc heterodimer; also called BM-RT2831-#27
B5: bispecific antibody BM#2 against CD33 and CD123 (bispecific antibody, human IgG1)
chain 1: B1 chain 1 with E265K, V307K, T313F
chain 2: not shown
notes: VHH-Fc heterodimer
B6: bispecific antibody BM#4 against CD33 and CD123 (bispecific antibody, human IgG1)
chain 1: B1 chain 1 with E265K, W274V, V307K, T313F
chain 2: B2 chain 2 with D260K, Y270E, Y307A, V309D
notes: VHH-Fc heterodimer; also called BM-RT2831-#4
B7: bispecific antibody BM#21 against CD33 and CD123 (bispecific antibody, human IgG1)
chain 1: B1 chain 1 with D264K, W274T
chain 2: not shown
notes: VHH-Fc heterodimer; also called BM-RT2831-#21
B8: bispecific antibody BM#28 against CD33 and CD123 (bispecific antibody, human IgG1)
chain 1: B1 chain 1 with D264K, E265D, W274T, V307K, T313F
chain 2: B2 chain 2 with D260K, V309D, K339E
notes: VHH-Fc heterodimer
B9: bispecific antibody BM#26 against CD33 and CD123 (bispecific antibody, human IgG1)
chain 1: B1 chain 1 with D264K, E265K, W274T
chain 2: B2 chain 2 with D260K, Y270E, V309W, K339E
notes: VHH-Fc heterodimer
B10: bispecific antibody BM#36 against CD33 and CD123 (bispecific antibody, human IgG1)
chain 1: not shown
chain 2: B2 chain 2 with D260K, Y270K, T294S, V297A, F305A, Y307V, V309K
notes: VHH-Fc heterodimer
B11: bispecific antibody BM#29 against CD33 and CD123 (bispecific antibody, human IgG1)
chain 1: B1 chain 1 with Q255R, D264K, W274T, V307D, T313F, Y315A
chain 2: B2 chain 2 with Y270K, K339E
notes: VHH-Fc heterodimer; also called BM-RT2831-#29
B12: bispecific antibody BM#13 against CD33 and CD123 (bispecific antibody, human IgG1)
chain 1: not shown
chain 2: B2 chain 2 with D260K, Y270K, D299V, F305T, Y307A, V309K
notes: VHH-Fc heterodimer
B13: bispecific antibody BM#24 against CD33 and CD123 (bispecific antibody, human IgG1)
chain 1: B1 chain 1 with D264K, E265D, W274T, V307D, T313F, Y315A
chain 2: B2 chain 2 with D260K, K339E
notes: VHH-Fc heterodimer; also called BM-RT2831-#24
B14: bispecific antibody BM#22 against CD33 and CD123 (bispecific antibody, human IgG1)
chain 1: B1 chain 1 with E265K, W274T
chain 2: not shown
notes: VHH-Fc heterodimer; also called BM-RT2831-#22
B15: bispecific antibody BM#12 against CD33 and CD123 (bispecific antibody, human IgG1)
chain 1: B1 chain 1 with K278E, V307D, T313F, K317D
chain 2: not shown
notes: VHH-Fc heterodimer
B16: bispecific antibody BM#23 against CD33 and CD123 (bispecific antibody, human IgG1)
chain 1: B1 chain 1 with E265D, W274T
chain 2: not shown
notes: VHH-Fc heterodimer; also called BM-RT2831-#23
B17: bispecific antibody BM#3 against CD33 and CD123 (bispecific antibody, human IgG1)
chain 1: B1 chain 1 with W274V
chain 2: not shown
notes: VHH-Fc heterodimer; also called BM-RT2831-#3
B18: bispecific antibody BM#14 against CD33 and CD123 (bispecific antibody, human IgG1)
chain 1: B1 chain 1 with W274V, K278E, V307D, T313F, K317D
chain 2: B2 chain 2 with E257K, D260K, Y270K, D299K, Y307A, V309K
notes: VHH-Fc heterodimer
B19: anti-CD123 single domain antibody (VHH)
VHH: QVQLVESGGGSVQAGGSLKLSCAASRFIFSRCGMGWFRQAPGKERELVSTISGDGTTFYADSVKGRFTISQHNAATTLYLQMNSLKLEDTAVYYCAADCYNRKYWGQGTQVTVSS
notes: Tested as crude extract from the pMECS clone and detected through an HA tag; also called second VHH

The target of the first test is T2, human FCγRIIIa receptor (human, UniProt P08637 17-208, limits assumed).
T2 construct: Used in solution as the 'antigen' in BLI; also called FcγIIIa receptor
T2 sequence (P08637 17-208 limits assumed): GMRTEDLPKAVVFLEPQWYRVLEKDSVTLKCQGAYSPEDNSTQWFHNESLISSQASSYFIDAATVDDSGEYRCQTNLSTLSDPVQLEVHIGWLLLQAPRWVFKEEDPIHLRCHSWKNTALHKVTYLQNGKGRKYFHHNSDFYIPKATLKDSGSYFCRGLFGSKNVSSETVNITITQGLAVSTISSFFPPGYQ
The experiment in a line: BLI; Ratio against the hIgG (hIgG1) control, fits KD(hIgG)/KD(sample). As to the method:
(§1) (3) Preparation of antigen working solution: 200 nM antigen (FCγRIIIa) in SD buffer was first prepared at and then serially diluted in 2 folds to prepare a total of 5 concentration gradients, in addition to which a zero concentration was prepared.
(§2) (11) Data analysis: related constants, such as KD, Kon, Koff, X2, Full R2 and the like were calculated in Data Analysis software.
(§3) In the examples of the present application, the modified bispecific antibody was subjected to BLI test to determine the affinity of the modified bispecific antibody to human FCγRIIIa.
Consider B1, for which the Ratio was 1.29. Same read-out and setting: in the case of B2 it was 1.17; in that of B3, 1.27; in that of B4, 0.91. For the molecule B5, the Ratio is 1.12. Turning to B6, the Ratio was found to be 1.19. As for B7, the Ratio worked out at 1.04. Consider B8, for which the Ratio is 1.45. Consider B9, for which the Ratio was determined as 1.15. Still for that read-out and setting: the value for B10 was 1.38; that for B11 was 1.2; that for B12 was 1.42. Same read-out and setting: in the case of B13 it was 1.06; in that of B14, 1.03; in that of B15, 1.65.

As for B16, the Ratio came to 1.08. For the molecule B17, the Ratio was determined as 1. Consider B18, for which the Ratio is 1.61.

A further test deals with T2, human FCγRIIIa receptor. Put plainly: BLI (Octet 96), antibody loaded on sensor, FCγRIIIa 200 nM and 2-fold dilutions in solution. As to the method: as §1, §2, §3
(In general: BLI is a label-free optical method that tracks binding on a fibre tip over time.)
Usually Kd stands for the free concentration of one partner at which half of the binding sites on the other are occupied at equilibrium, for simple one-to-one binding. Higher therefore signals lower affinity. In turn, B1 showed a Kd of 68.9 nM. B2 yielded a Kd of 76 nM. For B3, the affinity, expressed as Kd, was 69.6 nM. Consider B4, for which the Kd is 96.9 nM. Take B5: the affinity, expressed as Kd, was 79.1 nM. In turn, B6 displayed a dissociation constant (Kd) of 74.2 nM.

In turn, B7 showed a Kd of 85.4 nM.

The molecule B8 returned a Kd of 61.3 nM. With B9, binding was characterised by a dissociation constant (Kd) of 76.9 nM. For the molecule B10, binding was put at a Kd of 64.2 nM. Turning to B11, the Kd was found to be 73.9 nM. With B12, binding was characterised by a dissociation constant (Kd) of 62.5 nM. Same read-out and setting: the value for B13 was 83.3 nM; that for B14 was 86.3 nM; that for B15 was 53.8 nM. B16 registered a Kd of 82.1 nM.

Turning to B17, the Kd is 88.2 nM.

Take B18: the Kd is 55.2 nM.

The next test addresses T1, human recombinant CD123 protein. Put plainly: ELISA of crude antibody extract on coated antigen, anti-HA detection; positive clone if OD450 is more than 5 times the control. As to the method: 2. CD33 protein or CD123 protein was diluted into 100 mM NaHCO₃ at pH 8.3. An ELISA plate was coated with 100 μg CD33 protein at 4° C. overnight. The next day, […] BSA-Biotin protein was added to the ELISA plate.
3. 100 μL of crude antibody extract obtained in the above step was transferred to the ELISA plate into which the antigen was added, and incubated at room temperature for 1 h.
For orientation: An ELISA detects its analyte on a solid surface through an enzyme-linked reagent.
B19: the binding result is recorded as “binds”.

These data come from patent US20250163166A1 (REGENECORE BIOTECH, published 2025).
